Numbering of substitutions follows the chain as printed. Names and notes keep the numbering of the source.
B1: N61A: point mutation N61A of SEQ ID NO:109 (protein)
chain: MAQGKVALEEHFAIPETLQDSAGFVPGDYWKELQHRLLDIQDTRLKLMDAHGIETMILSLAAPAVQAIPDRRKAIEIARRANDVLAEECAKRPDRFLAFAALPLQDPDAATEELQRCVNDLGFVGALVNGFSQEGDGQTPLYYDLPQYRPFWGEVEKLDVPFYLHPRNPLPQDSRIYDGHPWLLGPTWAFAQETAVHALRLMASGLFDEHPRLNIILGHMGEGLPYMMWRIDHRVAWVKLPPRYPAKRRFMDYFNENFHITTSGNFRTQTLIDAILEIGADRILFSTDWPFENIDHASDWFNATSIAEADRVKIGRTNARRLFKLDGA
modifications: Dicamba decarboxylase variant clone DC.4.032
B2: 109 (protein)
chain: B1 chain with A61N
modifications: Dicamba decarboxylase variant clone DC.4.032

Tests used:
[1] = Saturation mutagenesis of SEQ ID NO:109, dicamba decarboxylation activity of point mutants
[2] = Enzyme kinetic characterization (kcat, KM, kcat/KM) by PEPC/MDH coupled enzyme assay or GC/MS measurement of 2,5-DCP
[3] = Dicamba decarboxylation activity of computationally designed protein variants
[4] = 14C assay with IPTG-induced recombinant E. coli cells (14CO2 capture from [14C]-carboxyl-labeled dicamba); details: dicamba decarboxylation activity of the protein of the given SEQ ID NO
[5] = purified protein, substrate dicamba

| Molecule | Average Activity (Fold of SEQ ID NO: 109) ([1]; dicamba decarboxylation activity of point mutants of SEQ ID NO: 109 (NNK saturation mutagenesis), relative to the unchanged template) | Average Activity (Fold of SEQ ID NO: 109) ([1]; dicamba decarboxylation activity of single point mutants of SEQ ID NO:109, relative to unchanged template) | KM compared with template SEQ ID NO:109 ([2]; FIG. 6) | kcat compared with template SEQ ID NO:109 ([2]; FIG. 6) [fold] | Dicamba Decarboxylation activity ([3]; Table 5, designed variants with improved activity) | Percent Activity Improvement Over Parent (%) ([3]; parent SEQ ID NO:1 or SEQ ID NO:41 listed as 100) | Enzymatic Detection level [4] | Km [2, 5] [mM] | kcat [2, 5] [s⁻¹] |
| --- | --- | --- | --- | --- | --- | --- | --- | --- | --- |
| B1 | 2.9 Fold of SEQ ID NO: 109 | 2.9 Fold of SEQ ID NO: 109 | unchanged | 17 | – | – | – | – | – |
| B2 | – | – | – | – | Yes | 234 | High | 4.66 | 0.000533 |

Source: patent US20140287419A1, “Compositions Having Dicamba Decarboxylase Activity and Methods of Use” (priority 2013, published 2014)
